# Reference: the DeepSol protein solubility set
# Experiment: soluble on expression in E. coli; label from the status in PepcDB or PDB records
row,Sequence,soluble on expression in E. coli
1,MYLCEEHFKEYFERKVARTIEKYKLASKDERILVAVSGGKDSAVTAYVLKKLGYKIECLHLNLGIGEYSEKSEIYAKKQCEFIGAPLNIIRVKELLGYGIGEVRTSRPTCSYCGLTKRYIMNKFAYDNGFDAVATGHNLDDEASFLMNNLLHWNTEYLAKGGPLLPGEGKFVKKIKPLYELTEREVVAYAIAVGLEYIVEECPYARGATTLDMKEVLNELEEKRPGTKFNFVRGFLRKKKLFEPEVKGKDLKECKICGMPASGEICSFCKFWKLGKPLTFKIK,not soluble
2,MYLRKILELYRDSRFKYVVVDTPPTGLTLRILSLPRLYTFWLESLIGIRERIVSLRYVIARSIGREPEMDDPVLDKLREMQDRYAKLSNDLVERERTSFAIVATPEPLPVYEARKTVEFLESMGAKPSIIVVNRILPAEIASRLGVLEVQSKALNELRTRVCRKPCVLVEIPMVETVPSSLEAVLNLVERSR,not soluble
3,MYLYIETLKQRLDAINQLRVDRALAAMGPAFQQVYSLLPTLLHYHHPLMPGYLDGNVPKGICLYTPDETQRHYLNELELYRGMSVQDPPKGELPITGVYTMGSTSSVGQSCSSDLDIWVCHQSWLDSEERQLLQRKCSLLESWAASLGVEVSFFLIDENRFRHNESGSLGGEDCGSTQHILLLDEFYRTAVRLAGKRILWNMVPCDEEEHYDDYVMTLYAQGVLTPNEWLDLGGLSSLSAEEYFGASLWQLYKSIDSPYKAVLKTLLLEAYSWEYPNPRLLAKDIKQRLHDGEIVSFGLDPYCMMLERVTEYLTAIEDFTRLDLVRRCFYLKVCEKLSRERACVGWRREVLSQLVKEWEWDDARLAMLDNRANWKIDQVREAHNELLDAMMQSYRNLIRFARRNNLSVSASPQDIGVLTRKLYAAFEALPGKVTLVNPQISPDLSEPNLTFIYVPPGRANRSGWYLYNRAPNIESIISHQPLEYNRYLNKLVAWAWFNGLLTSRTRLYIKGNGVVDLPKLQEMVADVSHHFPLRLPAPTPKALYSPCEIRHLAIIVNLEYDPTAAFRNQVVHFDFRKLDVFSFGENQNCLVGSVDLLYRNSWNEVRTLHFNGEQSMIEALKTILGKMHQDAAPPDSVEVFCYSQHLRGLIRTRVQQLVSECIELRLSSTRQETGRFKALRVSGQTWGLFFERLNVSVQKLENAIEFYGAISHNKLHGLSVQVETNHVKLPAVVDGFASEGIIQFFFEETQDENGFNIYILDESNRVEVYHHCEGSKEELVRDVSRFYSSSHDRFTYGSSFINFNLPQFYQIVKVDGREQVIPFRTKSIGN,not soluble
4,MYPNISDCGVIGDTRTAALVNSNGSIDYCSLPYFDSPTVFAALLDERKGGYFSLKPAEAFSSRREYLPDTCILCTSFTTRNGKAALYDFMPHQDDKTRERTQGIHRCIRVDEGRVKFTLTLKLLTFQQTGAIVAAATTSLPESIGGKRNWDYRFTWIRNASFTLKAFFALSHTSEADTFIRWLHDTYRKNGSRGFSQKLNAFVQRFDTEILDASLLIMPLVDFLPVTDQRIQGTIEACQTHLMDNGFIRRYRADDGLEEDEGGFLLCNFWMIECLALSGKSAEAEKLLGITMAAANDLGLFSEEYDPYSREMLGNFPQAFSHIGYINAAATLIDSKLPLANPLEHHHHHH,not soluble
5,MYPVDLHMHTVASTHAYSTLSDYIAQAKQKGIKLFAITDHGPDMEDAPHHWHFINMRIWPRVVDGVGILRGIEANIKNVDGEIDCSGKMFDSLDLIIAGFHEPVFAPHDKATNTQAMIATIASGNVHIISHPGNPKYEIDVKAVAEAAAKHQVALEINNSSFLHSRKGSEDNCREVAAAVRDAGGWVALGSDSHTAFTMGEFEECLKILDAVDFPPERILNVSPRRLLNFLESRGMAPIAEFADL,soluble
6,MYQLTVFYDGTCPLCAKEMRALKQQDKNNVIKTIDIYSEVFSEYSNIDPKAANTVLHALNQKGELILGLDVTYLAWKLVGKGWLYAPLRWPGIKVIADWCYLHFAKNRYRVSYWLTGVSRCNKTSCSKLEHHHHHH,not soluble
7,MYTAIPQSGSPFPGSVQDPGLHVWRVEKLKPVPVAQENQGVFFSGDSYLVLHNGPEEVSHLHLWIGQQSSRDEQGACAVLAVQLDDYLGGRPVQHREVQGNESDLFMSYFPRGLKYQEGGVESGFKHVVPNEVVVQRLYQVKGAKNIRATERALNWDSFNTGDCFILDLGQNIFAWCGGKSNILERNKARDLALAIRDSERQGKAQVEIVTDGEEPAEMIQVLGPKPALKEGNPEEDLTADKANAQAAALYKVSDATGQMNLTKVADSSPFALELLISDDCFVLDNGLCGKIYIWKGRKANEKERQAALQVAEGFISRMQYAPNTQVEILPQGRESPIFKQFFKDWK,soluble
8,MYTAIVNLKTYREATGANFTRFMEKFEPVQGKFELIFSPSLLDLEKAAKCGKFRFFAQHVDAEPYGAYTGHVPMDMMIDLGITGSILNHSERRLPRDTIINTLKKASKLDFTIVLCVENAEEAKYFREYEPDFIAYEPRDLIGGDVSVSTAKPEIIEDIVKIYEGTGTSVLVGAGIKTGEDVRRSIGLGARGILVASGVVKSADPTKSLNSLIELK,not soluble
9,MYVDPKVTIETVKTLNTYLKTRAELRSTDHVVIAEKLDDNDKKATTRLKILTKFDEGRFGAIYMVQNESAVDNDVVSVGNSRFIMKTALRQLSSHQIVYRLSREITVLKTLWGQGNDPPPRVPPILHQGKILGVPFYVTSIFDVNLEKCREQMGGGTFCVQSAFHIAQEIFMALKFMHRRQLVHRDVKPTNIALSYQNRDQWYLIDYGDAISVGKKTPISPPDGVTLPFLSLEAHDLLVTSSYSSFQQDLESWFYVIVDLLKPLPWKDNNRIDKVALAKRDFMSRLPNNLTNLPSQILDIGQILKTESPYSEISKKLVEGLASVKTSSSEKWNPEWYDRSATRNLREKKIKNQPRSRESAEAEATAVQTTPTGSTELQNDRRDKSVYVSTIVTKVVDNRKKVSSSNSPTTVSTNKTAVIEDEEDVKKNSPIQKQQDRSVYFNDFPVAAVAQPETGKKKKYRYKMRKQ,not soluble
10,MYVMTQSGWLELICGCMFSGKSEELIRRVRRAQFAKQEVKVFKPTIDNRYSEDAVVSHNGNSVIAIPVATPAEMFRYISAATDVVAIDEIQFFSDDIIDVVQTLADCGYRVIAAGLDQDFRGEPFGPVPALMAIAESVTKLQAVCTVCGSPASRTQRLINGAPASYDDPVILVGASEAYEPRCRHHHEVPGKPKKRYNHPLAGHTGE,soluble
11,NAELAKSGIEVKNDVCEHFAYSRQELFHLIRIEEIKTFDELLEKYGKGYGCEVCKPLAGSILASCWGEHILKPQLVKLHDTNDNFLGNIQKDGTYSVIPRMAGGEVTPQALGALANVAAEYNLYTKVTGAQRIGLFGAQKDDLPEIWRKLIDAGFETGQAYAKALRMAKTCVGSTWCRYGVQDSVGLGSYIENRYKGIRTPHKMKFGVSGCTRECAEAQGKDLGIIATDAGWNMYVCGNGGMKPRHADLLASDLDKETLIKYIDRFMMFYIRTAAPLQRTSVWMENMEGGVDYLRAVIVEDKLGINAQLEADVAKLVDEYECEWTATINDASQLTRFAHFINSDKRDDNVVFVQEREQHRPATFTEKHPEAKGDILHVAITEA,not soluble
12,NAVHFGAGNIGRGFIGKLLADAEVEVTFADVDVPLVDQLSHKQEYKVKVVGTECKIDTVTHVTAVNSASEDVIDRIVKTDLVTTAVGPNVLDIIAKTIAKGIAKRFEAGNDAPLNIIACENMVRGTTHLKGEVYKHLDKSLHAKADELVGFVDSAVDRIVPPAEAANDDPLEVTVESFSEWIVDEQQFKGDIPNIAGMEKTNN,soluble
13,NDGTTVTPLCTSPVVQCGEGTLFGGDEPARTWFTAAQSSGLAASGNLPSYDPKFNRGVSGSFGTSYVGREGESVRKELSAKGYKVTMTSAPGDGIPKGSVVNVIAPVPLKPGGTIELFISDGTRPRTTPPSTTRRPNPTEEVVPGTGVSQNDLDDLAHQLQQLLPGF,not soluble
14,NDLVSFTLRGNASWNRDKIIENDEAPKPYPWMEKRGTNVFSQWGLIADGLFTSEEEIEKHATQFGQVYIGDIKYRDLNNDKKIDSNDICRIGQGTIPKYNYGFGFDVQIGYFSVSALFQGAADVTTCLSGNSIIPFSSQAGIDNLFDNIEDRWSPDDPTNEDVFYPRLHYGNSNNSNNYRASTWWLRNMDYLRLKQFNIAYNLPENTLKSVGVKGARIYLMGTNLLTFSKFKLWDPEVYSSNGAAYPNVMSCSLGVNFSF,not soluble
15,NEDNSFTVRANMTYAVSKVVHWDQDAVRYPYQSYSDVNYGVMRGLVALGLFQNQDEINRSPKQTYGEVRPGDIRYKDVNADGKIDDDDIVPIAHSNVPQIQYGFALEYRYKRWTISALFTGAAKVNFLYGGSGFYPFSGGEVGNILSIVNDPKNRWTPAWYSGDPSTENPNARFPRLTYGENKNNNRASTFWLADGSYLRWKSLDISYRIGTNKVLRTVGISDMNLQFVGQNLAVWDSVKLWDPGQASKNGAVYPLQRTFSLQLTATF,not soluble
16,NGLVDSMIKNAIAWQTSHLQIHQSAYLVNPELKDTIPDSQSIVTTLDKHQSVKAVSERFLADGMIASARSSRGIRINGIHLEQEQKITPLSEHIIDGYWLDEEGRNPILVSQKTAKRLKLRVGSKVILTLSDINGDVSGAAFRVKGIFKTPSTTFDDGNVYVRKADLEKIAGIAGAHEIAILLNANDDDVLQNIVSFTRTLTDDGSGKPLTVRTWLEIQPLLSTMMSSMDISNQ,not soluble
17,NGWVWKLGMNLTHYKNKVTELPLKDMPQSGVNKLQVGRSVYDFYMKEWAGVDPDNGNPLWYMDEKDANDNLTGKRVTTSDYASANYYYVNKSSLPKVYGGFNTSLSWKGFDLSAIFAYSIGGYIYNRDITMILHNGSLEGRDWSTEILKRWTPENRYTDVPALSTTSNNWNSASTRFLQNNSYMRLKNLTLSYDLPKQWISKLALSSVQVFVQGDNLFTIHRNQGLDPEQGITGITYYRYPAMRTISGGINLSF,not soluble
18,NIENSSLERIANILNSKLKGLTIEQINLEVINNIKKDLREYGHIFDCIMPNLYDILREADSTEVYKEGTMNIFNYPEFKDIEKAKEFLSVIDDRRILDTLFNASGGVTVNIGNENSIKEARDFSVVSSVYKYNGRPLGTIGIIGPTRIPYSKVIKVIMEVVDQINNNLDKMNNS,not soluble
19,NKDNLDLAGLTSLLSEKIKEFLQEKKMQSFYQQELETVESLQSLASRPVTHSTGSDQVELKDSGTSGVAQRVFKNALQLLQEKGLVFQRDSGSDKLYYVTTKDKDLQ,soluble
20,NLLEEESAVLGQAVTNLMLSGDNVNNKNIILSLIHSLETTSDILKADVIRKTLEIVLRYTADDM,soluble
21,NNESSLIEQAPIPQDGLTVAPHRAQREAVHIEKIMLKGVQRKRADKYWEYTFKVNWSDLSVTTVTKTHQELQEFLLKLPKELSSETFDKTILRALNQGSLKREERRHPDLEPILRQLFSSSSQAFLQSQKVHSFFQSISSDSLHSINNLQSSLKTSKILEHLKEDSSEASSQEEDVLQHAIIHKKHTGKSPIVNNIGTSCSPLDGLTMQYSEQNGIVDWRKQSCTTIQHPEHCVTSADQHSAEKRSLSSINKKKGKPQTEKEKIKKTDNRLNSRINGIRLSTPQHAHGGTVKDVNLDIGSGHDTCGETSSESYSSPSSPRHDGRESFESEEEKDRDTDSNSEDSGNPSTTRFTGYGSVNQTVTVKPPVQIASLGNENGNLLEDPLNSPKYQHISFMPTLHCVMHNGAQKSEVVVPAPKPADGKTIGMLVPSPVAISAIRESANSTPVGILGPTACTGESEKHLELLASPLPIPSTFLPHSSTPALHLTVQRLKLPPPQGSSESCTVNIPQQPPGSLSIASPNTAFIPIHNPGSFPGSPVATTDPITKSASQVVGLNQMVPQIEGNTGTVPQPTNVKVVLPAAGLSAAQPPASYPLPGSPLAAGVLPSQNSSVLSTAATSPQPASAGISQAQATVPPAVPTHTPGPAPSPSPALTHSTAQSDSTSYISAVGNTNANGTVVPPQQMGSGPCGSCGRRCSCGTNGNLQLNSYYYPNPMPGPMYRVPSFFTLPSICNGSYLNQAHQSNGNQLPFFLPQTPYANGLVHDPVMGSQANYGMQQMAGFGRFYPVYPAPNVVANTSGSGPKKNGNVSCYNCGVSGHYAQDCKQSSMEANQQGTYRLRYAPPLPPSNDTLDSAD,soluble
